Binding signal (fold activation) and activity data for two sequences are collected here from patent US20110086015.

In data set [1] the test system is OZ137 CF877R zinc finger array (synthetic). Kind of data set: one_hybrid. The following applies: bacterial two-hybrid lacZ; SD 0.04.
For data set [2], the system named is OZ139 CF877R zinc finger array (synthetic). Kind of data set: one_hybrid. The following applies: bacterial two-hybrid lacZ; SD 0.03.
The test system of data set [3] is OZ123 CF877R zinc finger array (synthetic). Briefly: one_hybrid. The note with it: bacterial two-hybrid lacZ; SD 0.63.
For data set [4], the system named is OZ128 CF877R zinc finger array (synthetic). Briefly: one_hybrid. The following applies: bacterial two-hybrid lacZ; SD 0.07.
In data set [5] the test system is OZ134 CF877R zinc finger array (synthetic). Kind of data set: one_hybrid. The note with it: bacterial two-hybrid lacZ; SD 0.19.
In data set [6] the test system is OZ142 CF877R zinc finger array (synthetic). Briefly: one_hybrid. The note with it: bacterial two-hybrid lacZ; SD 0.16.
Data set [7] concerns OZ130 CF877R zinc finger array (synthetic). Kind of data set: one_hybrid. The note with it: bacterial two-hybrid lacZ; SD 0.22.
Data set [8] has as its system OZ125 CF877R zinc finger array (synthetic). Briefly: one_hybrid. The note with it: bacterial two-hybrid lacZ; SD 0.85.
Data set [9] concerns OZ119 CF877R zinc finger array (synthetic). Briefly: one_hybrid. The note with it: bacterial two-hybrid lacZ; SD 0.35; site triplets appear printed in F1-F2-F3 order, so 5'-3' triplet order may be reversed.
In data set [10] the test system is OZ135 CF877R zinc finger array (synthetic). Briefly: one_hybrid. The note with it: bacterial two-hybrid lacZ; SD 0.07.
Data set [11] deals with OZ120 CF877R zinc finger array (synthetic). Briefly: one_hybrid. The note with it: bacterial two-hybrid lacZ; SD 0.01.
The subject of data set [12] is OZ122 CF877R zinc finger array (synthetic). Kind of data set: one_hybrid. The note with it: bacterial two-hybrid lacZ; SD 0.59.
The test system of data set [13] is OZ121 CF877R zinc finger array (synthetic). Kind of data set: one_hybrid. The note with it: bacterial two-hybrid lacZ; SD 0.19.
Data set [14] relates to OZ132 CF877R zinc finger array (synthetic). Briefly: one_hybrid. The note with it: bacterial two-hybrid lacZ; SD 0.05.
Data set [15] deals with OZ141 CF877R zinc finger array (synthetic). Kind of data set: one_hybrid. The following applies: bacterial two-hybrid lacZ; SD 0.08.
The subject of data set [16] is OZ126 CF877R zinc finger array (synthetic). Kind of data set: one_hybrid. The following applies: bacterial two-hybrid lacZ; SD 0.28.
Data set [17] deals with OZ127 CF877R zinc finger array (synthetic). Kind of data set: one_hybrid. The following applies: bacterial two-hybrid lacZ; SD 0.02.
Data set [18] has as its system OZ140 CF877R zinc finger array (synthetic). Kind of data set: one_hybrid. The note with it: bacterial two-hybrid lacZ; SD 0.48.
The test system of data set [19] is OZ138 CF877R zinc finger array (synthetic). Kind of data set: one_hybrid. The following applies: bacterial two-hybrid lacZ; SD 0.41.
The test system of data set [20] is OZ133 CF877R zinc finger array (synthetic). Briefly: one_hybrid. The following applies: bacterial two-hybrid lacZ; SD 0.05.
Data set [21] concerns OZ129 CF877R zinc finger array (synthetic). Kind of data set: one_hybrid. The following applies: bacterial two-hybrid lacZ; SD 0.07.
Data set [22] has as its system OZ131 CF877R zinc finger array (synthetic). Kind of data set: one_hybrid. The note with it: bacterial two-hybrid lacZ; SD 0.12.
For data set [23], the system named is OZ124 CF877R zinc finger array (synthetic). Kind of data set: one_hybrid. The note with it: bacterial two-hybrid lacZ; SD 0.20.
Data set [24] relates to OZ136 CF877R zinc finger array (synthetic). Briefly: one_hybrid. The note with it: bacterial two-hybrid lacZ; SD 0.06.
The test system of data set [25] is T1, CF877 left ZFN (synthetic).
T1 sequence: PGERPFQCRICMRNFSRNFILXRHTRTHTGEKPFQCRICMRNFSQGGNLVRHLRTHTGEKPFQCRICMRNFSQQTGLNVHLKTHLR
Briefly: cell_activity. The following applies: as pair with right ZFN, K562 nucleofection; up to ~29% with adenovirus in CFBE41o-; exact clone of pair not stated.

Data set [26] has as its system OZ118 CF877L zinc finger array (synthetic). Briefly: one_hybrid. The note with it: bacterial two-hybrid lacZ; SD 0.08.
The subject of data set [27] is OZ109 CF877L zinc finger array (synthetic). Kind of data set: one_hybrid. The following applies: bacterial two-hybrid lacZ; SD 0.20.
Data set [28] has as its system OZ112 CF877L zinc finger array (synthetic). Kind of data set: one_hybrid. The note with it: bacterial two-hybrid lacZ; SD 0.55.
Data set [29] relates to OZ117 CF877L zinc finger array (synthetic). Briefly: one_hybrid. The following applies: bacterial two-hybrid lacZ; SD 0.33.
In data set [30] the test system is OZ108 CF877L zinc finger array (synthetic). Kind of data set: one_hybrid. The note with it: bacterial two-hybrid lacZ; SD 0.51.
Data set [31] concerns OZ113 CF877L zinc finger array (synthetic). Briefly: one_hybrid. The following applies: bacterial two-hybrid lacZ; SD 0.20.
Data set [32] concerns OZ111 CF877L zinc finger array (synthetic). Briefly: one_hybrid. The following applies: bacterial two-hybrid lacZ; SD 1.90.
The subject of data set [33] is OZ116 CF877L zinc finger array (synthetic). Kind of data set: one_hybrid. The note with it: bacterial two-hybrid lacZ; SD 0.38.
For data set [34], the system named is OZ107 CF877L zinc finger array (synthetic). Briefly: one_hybrid. The note with it: bacterial two-hybrid lacZ; SD 0.58; site triplets appear printed in F1-F2-F3 order, so 5'-3' triplet order may be reversed.
Data set [35] has as its system OZ114 CF877L zinc finger array (synthetic). Kind of data set: one_hybrid. The note with it: bacterial two-hybrid lacZ; SD 0.18.
The subject of data set [36] is OZ110 CF877L zinc finger array (synthetic). Kind of data set: one_hybrid. The following applies: bacterial two-hybrid lacZ; SD 0.15.
Data set [37] has as its system OZ115 CF877L zinc finger array (synthetic). Briefly: one_hybrid. The following applies: bacterial two-hybrid lacZ; SD 0.12.

Take “GAGTGGTTA (double strand) [CF877R half-site]”: the binding signal (fold activation) in [1] stood at 2.26; in [2], 2.74; in data set [3], 5.03; in [4], 2.12; in data set [5], 3.71; in data set [6], 2.73. The binding signal (fold activation) in data set [7] is 2.47; in data set [8], 4; in data set [9], 2.78; in data set [10], 2.25; in [11] it was 2.53; in [12] it was 4.72. In addition, the binding signal (fold activation) was found to be 2.91 in [13]; 1.28 in data set [14]; 2.87 in data set [15]; 2.57 in [16]; 1.6 in data set [17]; 2.99 in data set [18]. Moreover, the binding signal (fold activation) in data set [19] is 2.52; in data set [20] it was 3.24; in [21] it was 2.55; in [22], 2.08; in data set [23], 4.41; in [24], 2.16.
In data set [25], “GTGGAATTA (double strand) [CF877L half-site]” came in with an activity of 1.2 % indels. The binding signal (fold activation) is 3.55 in [26]; 2.83 in [27]; 2.52 in data set [28]; 3.87 in [29]; 2.31 in data set [30]; 1.61 in [31]. The binding signal (fold activation) in data set [32] was found to be 2.2; in data set [33], 2.53; in data set [34] it was 1.92; in data set [35], 2.95; in data set [36], 1.61; in data set [37], 2.71.
